# Assay results as given in patent publication US20060018911A1.
# Key:
# [1] = target: purified IgM antibody (38C13); experiment: antibody microarray, printed S1C5, goat anti-mouse IgM HRP chemiluminescence
# [2] = target: 38C13 IgM in 38C13 cell extract; experiment: antibody microarray, printed S1C5, cell extract, goat anti-mouse IgM HRP chemiluminescence
substance,measurement,setting,value
S1C5 anti-idiotype monoclonal antibody (anti-IgM antibody),lowest IgM concentration giving signal,[1],0.1 µg/mL
same,lowest spotted antibody concentration giving signal,[1],25 µg/mL
same,highest extract dilution giving signal (fold dilution (1:x)),[2],2000
same,lowest printed antibody concentration giving signal,[2],50 µg/mL
